Laboratory results taken from the DeepSol protein solubility set.

test: soluble on expression in E. coli; label from the status in PepcDB or PDB records

| Sequence | soluble on expression in E. coli |
| --- | --- |
| SRPVFAAKPDNEAIIDAQMKKPKVPVHAIATASHPMIRFIGHPEEQKNYDFFVPWLSKLPQWIAEGKQPYVMIHTADNIIAPELAANIYKNLQNHVALPDLAPFPANDGNSQLQMF | not soluble |
| SSDLGSEELEEEGENDLGEYEGERNELGERHGHGKARLPNGDTYEGNYESGKRHGQGTYKFKNGARYVGDYVKNKKHGQGTFVYPDGSRYEGEWADDQRHGHGVYYYVNNDTYTGEWFNHQRHGQGTYFYAETGSKYVGTWVHGQQEGAAELIHLNHRYQGKFINKNPVGPGKYVFDVGCEQHGEYRLTDVERGEEEEEEETLVSIVPKWKALKITELALWTPTLSEEHPPAEGQGQEEVQGATGAGEPSDDIQAEGFEVDAEPRTGEEDIDFRQESQENSYDLDQGNPNFDEEQLDLQE | soluble |
| SSGHIEGRHMNKQATEILNEYFYSHLSNPYPSEEAKEELAKKCGITVSQVSNWFGNKRIRYKKN | soluble |
| SSKALLALKSQVEKRKAELQTQNRTKKWKRIGDQWKEEDKIQEQETFLEAHSPIESKQENGTETSNKEPPLLKEEVIERLRAWEQPATLFGETDYERYIRLRDLELRNSEESKGQRNIFQQKLRQFKEKDELENFYRVTEMELPSKGSAAQKVKEEIYAAEEGPEFFKTPEEYCFRYMRRLLKMWKAEVEQLDEETKRTSLGRKTLATFEQTKEYLKPLFRKLKKQQLDKSILTSLEKILRYVEQREYVLANDEYLRLAIGNAPWPVGATMVGIHARTAREKISEGKIAHVMNDEETRKYIQAVKRLITLSQKWYPTVPSKMVVG | soluble |
| SSPEYAMEGIFSVKSDVFSFGVLVLEIVSGKRNRGFHNSGQDNNLLGYTWENWKEGKGLEIVDSIIVDSSSSMSLFQPHEVLRCIQIGLLCVQERAEDRPKMSSVIVPFCTR | soluble |
| SSPFLYLVLLVLGLHATIHCASPEGKVTACHSSQPNATLYKMSSINADFAFNLYRRFTVETPDKNIFFSPVSISAALVMLSFGACCSTQTEIVETLGFNLTDTPMVEIQHGFQHLICSLNFPKKELELQIGNALFIGKHLKPLAKFLNDVKTLYETEVFSTDFSNISAAKQEINSHVEMQTKGKVVGLIQDLKPNTIMVLVNYIHFKAQWANPFDPSKTEDSSSFLIDKTTTVQVPMMHQMEQYYHLVDMELNCTVLQMDYSKNALALFVLPKEGQMESVEAAMSSKTLKKWNRLLQKGWVDLFVPKFSISATYDLGATLLKMGIQHAYSENADFSGLTEDNGLKLSNAAHKAVLHIGEKGTEAAAVPEVELSDQPENTFLHPIIQIDRSFMLLILERSTRSILFLGKVVNPTEA | not soluble |
| SSSRGFNIKARGLCNNNNGGGGTGAKCGRWNPTVEQVKLLTDLFKAGLRTPSTDQIQKISMELSFYGKIESKNVFYWFQNHKARERQKCRKISTVKFDHRQDTDLSKPRRDNVRRHQLPAKG | soluble |
| STATIDRRLSTLNPNAPVFDPVEFREVEDFSPKWWDLVTTSKWFRDFWLSANSENEFLGGDDFSVMEEEFEEMIASSDGGSMADTVTEADVASYLKMLLNIAESTKEKIYRSKVSSCSPKYNQKKYMNPNFNCRRNHHIYQPR | soluble |
| STDIQMTQSPSSLSASVGDRVTITCQASQDINNYLIWYQQKPGQAPKLLIYDASTLETGVPSRFSGSGSGTEFTFTISSLQPEDLATYYCQQYDNLPYTFGQGTKLEIKR | soluble |
| STFAYIANSESDNISVIDVTSNKVTATIPVGSNPMGAVISPDGTKVYVANAHSNDVSIIDTATNNVIATVPAGSSPQGVAVSPDGKQVYVTNMASSTLSVIDTTSNTVAGTVKTGKSPLGLALSPDGKKLYVTNNGDKTVSVINTVTKAVINTVSVGRSPKGIAVTPDGTKVYVANFDSMSISVIDTVTNSVIDTVKVEAAPSGIAVNPEGTKAYVTNVDKYFNTVSMIDTGTNKITARIPVGPDPAGIAVTPDGKKVYVALSFCNTVSVIDTATNTITATMAVGKNPYASGQFIGSIPVQPVYPSADFKSNITSGYIFLSEPVQFTDLSKDATEWKWDFGDGSSSKKQNPTHTYSETGIYTVRLTVSNSNGTDSQISTVNVVLKGSPTPS | soluble |
| STLPRFDSVDLGNAPVPADAARRFEELAAKAGTGEAWETAEQIPVGTLFNEDVYKDMDWLDTYAGIPPFVHGPYATMYAFRPWTIRQFAGFSTAKESNAFYRRNLAAGQKGLSVAFDLPTHRGYDSDNPRVAGDVGMAGVAIDSIYDMRELFAGIPLDQMSVSMTMNGAVLPILALYVVTAEEQGVKPEQLAGTIQNDILKEFMVRNTYIYPPQPSMRIISEIFAYTSANMPKWNSISISGYHMQEAGATADIEMAYTLADGVDYIRAGESVGLNVDQFAPRLSFFWGIGMNFFMEVAKLRAARMLWAKLVHQFGPKNPKSMSLRTHSQTSGWSLTAQDVYNNVVRTCIEAMAATQGHTQSLHTNSLDEAIALPTDFSARIARNTQLFLQQESGTTRVIDPWSGSAYVEELTWDLARKAWGHIQEVEKVGGMAKAIEKGIPKMRIEEAAARTQARIDSGRQPLIGVNKYRLEHEPPLDVLKVDNSTVLAEQKAKLVKLRAERDPEKVKAALDKITWAAGNPDDKDPDRNLLKLCIDAGRAMATVGEMSDALEKVFGRYTAQIRTISGVYSKEVKNTPEVEEARELVEEFEQAEGRRPRILLAKMGQDGHDRGQKVIATAYADLGFDVDVGPLFQTPEETARQAVEADVHVVGVSSLAGGHLTLVPALRKELDKLGRPDILITVGGVIPEQDFDELRKDGAVEIYTPGTVIPESAISLVKKLRASLDA | soluble |
| STLQFKVGPPFELVRDYCPVVESHTGRTLDLRIIPRIDRGFDHIDEEWVGYKRNYFTLVSTFETANCDLDTFLKSSFDLLVEDSSVESRLRVQYFAIKIKAKNDDDDTEINLVQHTAKRDKGPQFCPSVCPLVPSPLPKHQIIREASNVRNITKTKKYDSTFYLHRNHVNYEEYGVDSLLFSYPEDSIQKVARYERVQFASSISVKKPFQQNKHFSLHVILGAVVDPDTFHGENPGIPYDELALKNGSKGMFVYLQEMKTPPLIIRGRSPSN | soluble |
| STTTTTKKPHVLVIPFPQSGHMVPHLDLTHQILLRGATVTVLVTPKNSSYLDALRSLHSPEHFKTLILPFPSHPCIPSGVESLQQLPLEAIVHMFDALSRLHDPLVDFLSRQPPSDLPDAILGSSFLSPWINKVADAFSIKSISFLPINAHSISVMWAQEDRSFFNDLETATTESYGLVINSFYDLEPEFVETVKTRFLNHHRIWTVGPLLPFKAGVDRGGQSSIPPAKVSAWLDSCPEDNSVVYVGFGSQIRLTAEQTAALAAALEKSSVRFIWAVRDAAKKVNSSDNSVEEDVIPAGFEERVKEKGLVIRGWAPQTMILEHRAVGSYLTHLGWGSVLEGMVGGVMLLAWPMQADHFFNTTLIVDKLRAAVRVGENRDSVPDSDKLARILAESAREDLPERVTLMKLREKAMEAIKEGGSSYKNLDELVAEMCL | soluble |
| SVFDIYKIGVGPSSSHTVGPMKAGKEFIDDLRAMGKLRDITKITVDVYGSLSLTGKGHHTDIAIIMGLAGNSPEKVDIDSIPGFIARVEETERLPVGMHCHTVSFPREGGMNFHKTNLELHENGMQIHAWIDDEKVYSKTYYSIGGGFIVDEENFGK | soluble |
| SVGTTSVVKNSHEEVVQTLANSLFPAQFMNGNIHIPVAVQAVAGTYQNTAQTVHIWDPQQQPQQQTPQEQTPPPQQQQQQLQVTCSAQTVQVAEVEPQSQPQPSPELLLPNSLKPEEGLEVWKNWAQTKNAELEKDAQNRLAPIGRRQLLRFQEDLISSAVAELNYGLCLMTREARNGEGEPYDPDVLYYIFLCIQKYLFENGRVDDIFSDLYYVRFTEWLHEVLKDVQPRVTPLGYVLPSHVTEEMLWECKQLGAHSPSTLLTTLMFFNTKYFLLKTVDQHMKLAFSKVLRQTKKNPSNPKDKSTSIRYLKALGIHQTGQKVTDDMYAEQTENPENPLRCPIKLYDFYLFKCPQSVKGRNDTFYLTPEPVVAPNSPIWYSVQPISREQMGQMLTRILVIREIQEAIAVANASTMH | soluble |
| SVTIDHTTENAAPAQAPVSDRAWALFRALDGKGLVPDGYVEGWKKTFEEDFSPRRGAELVARAWTPRRGAELVARAWTDPEFRQLLLTDGTAAVAQYGYLGPQGEYIVAVEDTPTLKNVIVCSLCSCTAWPILGLPPTWYKSFEYRARVVREPRKVLSEMGTEIASDIEIRVYDTTAETRYMVLPQRPAGTEGWSQEQLQEIVTKDCLIGVAIPQVPTV | soluble |
| SYLPAENHEYVAAKEGVMNIQTNQVMKVIFQLPDYLLNRYTQGVNVSAKMIFDAFPERSFDLTFQEIDTEADPKTGSYKVTMVMERPPELGILPGMSGNAYLVSQNSGATKIPDSALFEENGKTYVWRVDDQGVVAKADITMNDNGQILQGLADGDQIIISGINVIEPGIKVRAWVKERGL | not soluble |
| SYPYLMLSGHQYPQMAYYRGTLKKPNQYFGPYPNSNAVRDSIQVLQKVFMLRTCEDSVFEHRDRPCLLYQIKRCTAPCVGHISEEDYRDSVREAATFLNGKTDELTRTLQHKMQTAAANLQFEEAARYRDQIQALGIMQSNQFIDSKNPNNPNDIDLLALAVSDGLVCVHWVSIRGGRHVGDKSFFPDTKNDPEPNGQDYAEAFVAQHYLGKSKPDIIISNFPVPDALKEALEGEHGKQMQFVTKTIGERKVRLKMAEQNAQMAIAQRRLQQSSQQHRIDELAKILGMDSDGLNRLECFDISHTQGEATIASCVVYDEQNIQPSQYRRYNITTAKPGDDYAAMREVLTRRYGKMQEAEANGETVKWPDAVLIDGGKGQIGVAVSVWEELGLHIPLVGIAKGPERKAGMEELILPFTGEVFRLPPNSPALHLLQTVRDESHRFAITGHRKKRDK | not soluble |
| TCGLRQYSQPQFRIKGGLFADIASHPWQAAIFAKHRRSPGERFLCGGILISSCWILSAAHCFQERFPPHHLTVILGRTYRVVPGEEEQKFEVEKYIVHKEFDDDTYDNDIALLQLKSDSSRCAQESSVVRTVCLPPADLQLPDWTECELSGYGKHEALSPFYSERLKEAHVRLYPSSRCTSQHLLNRTVTDNMLCAGDTRSGGPQANLHDACQGDSGGPLVCLNDGRMTLVGIISWGLGCGQKDVPGVYTKVTNYLDWIRDNMRP | soluble |
| TDAMSEEEIKIIINNSYNGGEINQTELAYMQNIFSFDERHAKDIMVPRTQMVTLNEPFNVDELLDTIKEHQFTRYPITEDGDKDHVKGFINVKEFLTEYASGKPIKIANYIHELPMISETTRISDALVRMQREHVHISLIIDEYGGTAGILTMEDILEEIVGEIRDEFDDDEVNDIVKLDDHTY | not soluble |
| TEQERLELEAAAFRRLVAHLDSRKDVQNIDLMNLSGFCRNCLSKWYKAAADEKHIDITLDDAREVVYGMPYSEWKANYQKEASAEQQAAFVKESKH | not soluble |
| TFDIDLQQYGEKLLQNKIGCVVAIEPQTGEILAFISSPTYDPNLLTGRKYSANYKELEKDPYKPLFNRPLMAMYPPGSIFKLAQAAVALQEGVITDKSRFPCDKTLVNCHNHPSPQDLRGAIQWSCNPYFYMVYKKMISQDKNPNKFKDTEINFDEWRHNMLTLGFGQKMLVDLPSSKSGNIPSNAYYDKIYGDLHWKFSTIYSLSIGQGEINVVPIQMANLAALIANKGWYITPHFIKSIGKDGHILEEYKNKHVTSVEPKYFEPIIDGMEQVVLGGTAYWLKIKDIDICGKTGTAENPHGDDHSVYIAFAPKKEPKIAIAVYVENAGFGAMTAAPIAHLMIEKYLKDTITRKPLEDMILNKNLLHKVKVKP | not soluble |
